This is an account of results in patent publication US20230059341A1 (TESARO, published 2023).

Like-named read-outs stand apart in the source and are kept apart here.

Assay [1] deals with T1, PD-1 protein constitutively expressed on engineered CHO K1 cells (UniProt Q15116 25-288, limits assumed).
T1 construct: whole, on cells; also called programmed cell death protein 1
Description: MSD potency assay: competitive binding on CHO K1 cells expressing PD-1, inhibition of PD-L1-mFc binding, ECL; percent of reference material.
Description: (§1) The Meso Scale Discovery (MSD) potency assay employs engineered CHO K1 cells constitutively expressing the PD-1 protein. […] The readout is measured using a specific detection antibody mixture that releases an electrochemiluminescence (ECL) signal that can be quantified.

Assay [2] deals with T2, human PD-1 on PD-1 effector cells (Jurkat T cells, Promega #J1155) (human, UniProt Q15116 25-288). Description: cell-based or functional assay.
T2 sequence (Q15116 25-288): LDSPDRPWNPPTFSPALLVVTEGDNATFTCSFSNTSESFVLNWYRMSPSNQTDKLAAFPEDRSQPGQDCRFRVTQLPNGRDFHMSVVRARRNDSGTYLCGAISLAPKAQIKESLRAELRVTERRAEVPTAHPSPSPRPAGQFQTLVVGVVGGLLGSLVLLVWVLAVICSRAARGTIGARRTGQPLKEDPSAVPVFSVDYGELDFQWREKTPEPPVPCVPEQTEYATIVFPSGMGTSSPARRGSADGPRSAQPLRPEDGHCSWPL
The target in assay [3] is T3, Neonatal Fc Receptor (FcRn) (UniProt P55899 24-297; P61769 21-119, limits assumed). The experiment in a line: FcRn binding assay, BIACORE (SPR). Background: Surface plasmon resonance follows binding to a sensor surface in real time, without labels.
T3 sequence (P55899 24-297 limits assumed, chain 1 of 2): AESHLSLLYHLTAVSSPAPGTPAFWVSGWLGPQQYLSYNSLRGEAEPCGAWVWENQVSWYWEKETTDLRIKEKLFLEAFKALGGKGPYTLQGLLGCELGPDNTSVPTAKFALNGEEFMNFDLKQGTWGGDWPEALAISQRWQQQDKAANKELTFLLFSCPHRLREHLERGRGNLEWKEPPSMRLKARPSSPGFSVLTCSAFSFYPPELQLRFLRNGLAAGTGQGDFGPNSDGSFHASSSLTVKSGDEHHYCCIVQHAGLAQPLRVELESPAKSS
T3 sequence (P61769 21-119 limits assumed, chain 2 of 2): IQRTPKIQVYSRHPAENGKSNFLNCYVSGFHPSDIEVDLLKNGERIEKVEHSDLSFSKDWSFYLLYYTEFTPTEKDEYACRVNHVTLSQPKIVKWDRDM
Assay [4] concerns the target T3, Neonatal Fc Receptor (FcRn). The experiment in a line: FcRn binding assay, BIACORE (SPR). The source holds these as a separate data set.
Assay [5] concerns the target T1, PD-1 protein constitutively expressed …. The experiment in a line: MSD potency assay: competitive binding on CHO K1 cells expressing PD-1, inhibition of PD-L1-mFc binding, ECL; percent of reference material. The source holds these as a separate data set.
Description: as §1
The target of assay [6] is T2, human PD-1 on PD-1 effector cells …. Description: cell-based or functional assay. The source holds these as a separate data set.
In assay [7] the target is T1, PD-1 protein constitutively expressed …. Description: MSD potency assay: competitive binding on CHO K1 cells expressing PD-1, inhibition of PD-L1-mFc binding, ECL; percent of reference material. The source holds these as a separate data set.
Description: as §1
In assay [8] the target is T2, human PD-1 on PD-1 effector cells …. Description: cell-based or functional assay. The source holds these as a separate data set.
Assay [9] deals with T3, Neonatal Fc Receptor (FcRn). Description: FcRn binding assay, BIACORE (SPR). The source holds these as a separate data set.
Assay [10] deals with T2, human PD-1 on PD-1 effector cells …. Description: cell-based or functional assay. The source holds these as a separate data set.
Assay [11] concerns the target T1, PD-1 protein constitutively expressed …. The experiment in a line: MSD potency assay: competitive binding on CHO K1 cells expressing PD-1, inhibition of PD-L1-mFc binding, ECL; percent of reference material. This is another data set of the same source.
Description: as §1

T1 sequence (Q15116 25-288 limits assumed, change not shown): as the sequence (Q15116 25-288) above

B1: Dostarlimab, AAPH treated, 40° C., 3 days (antibody, human IgG4 S228P, kappa)
heavy: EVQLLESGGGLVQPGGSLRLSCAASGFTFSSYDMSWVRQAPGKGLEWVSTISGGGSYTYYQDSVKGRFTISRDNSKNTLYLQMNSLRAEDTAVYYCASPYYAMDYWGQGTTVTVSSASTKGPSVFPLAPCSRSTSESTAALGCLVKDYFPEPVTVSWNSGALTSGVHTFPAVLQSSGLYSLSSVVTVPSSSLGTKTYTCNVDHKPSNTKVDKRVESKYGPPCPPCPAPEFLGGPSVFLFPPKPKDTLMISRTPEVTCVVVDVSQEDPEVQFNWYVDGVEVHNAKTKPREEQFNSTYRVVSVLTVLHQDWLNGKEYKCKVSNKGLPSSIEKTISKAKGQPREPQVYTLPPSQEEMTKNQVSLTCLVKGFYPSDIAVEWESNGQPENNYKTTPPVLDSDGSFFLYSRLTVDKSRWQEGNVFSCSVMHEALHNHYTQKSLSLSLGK
light: DIQLTQSPSFLSAYVGDRVTITCKASQDVGTAVAWYQQKPGKAPKLLIYWASTLHTGVPSRFSGSGSGTEFTLTISSLQPEDFATYYCQHYSSYPWTFGQGTKLEIKRTVAAPSVFIFPPSDEQLKSGTASVVCLLNNFYPREAKVQWKVDNALQSGNSQESVTEQDSKDSTYSLSSTLTLSKADYEKHKVYACEVTHQGLSSPVTKSFNRGEC
modifications: percent of population: Trp 50 oxidation 74.2; percent of population: Met 103 oxidation 7.0; Met 248 oxidation 88.4; Asp 261/266/276 isomerization 1.0; Asn 311 deamidation 6.6; Met 354 oxidation 44.8; Asn 380 deamidation 9.6; Asn 385 deamidation 1.2; Met 424 oxidation 78.2; Lys 443 clipped 97.7
notes: 5 mM AAPH; HMW 11.8%; also called AAPH, 40° C., 3 days
Broadly, the Kd is the concentration at which binding is half-saturated. A higher Kd goes with a looser complex. With B1, in [1], the “Relative Potency, MSD Binding” value was 57%. Further, the “Relative Potency, Cell-Based Bioassay” value in assay [2] was determined as 14%. In assay [3], binding was characterised by a dissociation constant (Kd) of 8330 nM.

B2: Dostarlimab, acid degraded, T0 (exposed to pH 4.0, no incubation) (antibody, human IgG4 S228P, kappa)
heavy: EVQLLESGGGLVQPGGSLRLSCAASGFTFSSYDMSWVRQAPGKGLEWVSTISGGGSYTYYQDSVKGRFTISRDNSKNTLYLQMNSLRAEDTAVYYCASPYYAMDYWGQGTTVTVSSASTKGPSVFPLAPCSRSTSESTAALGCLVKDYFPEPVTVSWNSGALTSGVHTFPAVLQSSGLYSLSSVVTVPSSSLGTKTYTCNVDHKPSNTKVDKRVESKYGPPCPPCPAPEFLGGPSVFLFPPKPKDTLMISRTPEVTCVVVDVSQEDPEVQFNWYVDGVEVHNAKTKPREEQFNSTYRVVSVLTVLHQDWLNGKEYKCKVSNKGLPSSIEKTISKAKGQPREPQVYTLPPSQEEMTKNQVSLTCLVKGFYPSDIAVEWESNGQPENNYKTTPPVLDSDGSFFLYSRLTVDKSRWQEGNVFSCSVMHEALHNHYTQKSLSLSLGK
light: DIQLTQSPSFLSAYVGDRVTITCKASQDVGTAVAWYQQKPGKAPKLLIYWASTLHTGVPSRFSGSGSGTEFTLTISSLQPEDFATYYCQHYSSYPWTFGQGTKLEIKRTVAAPSVFIFPPSDEQLKSGTASVVCLLNNFYPREAKVQWKVDNALQSGNSQESVTEQDSKDSTYSLSSTLTLSKADYEKHKVYACEVTHQGLSSPVTKSFNRGEC
modifications: percent of population: Asn 137 deamidation 1.2; percent of population: Met 248 oxidation 3.8; Asn 311 deamidation 7.1; Asn 380 deamidation 10.1; Asn 385 deamidation 1.5; Lys 443 clipped 97.1
notes: Mixture; HMW 13.4%, basic peaks 13.6%
Regarding B2, in assay [4], binding was characterised by a dissociation constant (Kd) of 2060 nM. In addition, the “Relative Potency, MSD Binding” value in [5] stood at 99%. Besides, the “Relative Potency, Cell-Based Bioassay” value in assay [6] was determined as 109%.

B3: Dostarlimab, thermally degraded, 50° C., 3 weeks (antibody, human IgG4 S228P, kappa)
heavy: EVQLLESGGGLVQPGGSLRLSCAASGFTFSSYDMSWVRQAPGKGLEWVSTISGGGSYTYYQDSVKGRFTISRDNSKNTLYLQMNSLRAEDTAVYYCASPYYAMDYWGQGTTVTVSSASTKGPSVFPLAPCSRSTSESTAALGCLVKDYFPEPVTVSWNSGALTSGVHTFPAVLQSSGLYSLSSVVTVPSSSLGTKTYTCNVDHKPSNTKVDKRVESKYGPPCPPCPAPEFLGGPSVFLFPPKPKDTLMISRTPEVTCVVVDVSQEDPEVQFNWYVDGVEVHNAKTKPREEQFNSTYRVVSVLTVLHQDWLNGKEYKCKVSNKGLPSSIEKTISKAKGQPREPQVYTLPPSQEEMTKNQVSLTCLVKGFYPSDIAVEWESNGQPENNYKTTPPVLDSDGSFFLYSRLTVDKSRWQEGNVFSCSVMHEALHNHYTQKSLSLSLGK
light: DIQLTQSPSFLSAYVGDRVTITCKASQDVGTAVAWYQQKPGKAPKLLIYWASTLHTGVPSRFSGSGSGTEFTLTISSLQPEDFATYYCQHYSSYPWTFGQGTKLEIKRTVAAPSVFIFPPSDEQLKSGTASVVCLLNNFYPREAKVQWKVDNALQSGNSQESVTEQDSKDSTYSLSSTLTLSKADYEKHKVYACEVTHQGLSSPVTKSFNRGEC
modifications: percent of population: Asp 151/167 isomerization 2.5; percent of population: Met 248 oxidation 7.6; Asp 261/266/276 isomerization 13.1; Asn 311 deamidation 7.4; Met 354 oxidation 4.2; Asn 380 deamidation 14.7; Asn 385 deamidation 5.9; Asp 395/397/409 isomerization 2.2; Met 424 oxidation 3.5; Asn 430 deamidation 2.0; Lys 443 clipped 97.8
notes: Mixture; HMW 11.2%, acidic peaks 59.1%; also called Thermal Degradation
As for B3, the “Relative Potency, MSD Binding” value in assay [7] turned out to be 76%. Also, in [8], the “Relative Potency, Cell-Based Bioassay” value stood at 86%. Besides, binding in [9] was characterised by a dissociation constant (Kd) of 2290 nM. The “Relative Potency (Potency by cell-based bioassay)” value in assay [10] stood at 86%.

B4: Dostarlimab, AAPH treated, T0 (exposed to AAPH, no incubation) (antibody, human IgG4 S228P, kappa)
heavy: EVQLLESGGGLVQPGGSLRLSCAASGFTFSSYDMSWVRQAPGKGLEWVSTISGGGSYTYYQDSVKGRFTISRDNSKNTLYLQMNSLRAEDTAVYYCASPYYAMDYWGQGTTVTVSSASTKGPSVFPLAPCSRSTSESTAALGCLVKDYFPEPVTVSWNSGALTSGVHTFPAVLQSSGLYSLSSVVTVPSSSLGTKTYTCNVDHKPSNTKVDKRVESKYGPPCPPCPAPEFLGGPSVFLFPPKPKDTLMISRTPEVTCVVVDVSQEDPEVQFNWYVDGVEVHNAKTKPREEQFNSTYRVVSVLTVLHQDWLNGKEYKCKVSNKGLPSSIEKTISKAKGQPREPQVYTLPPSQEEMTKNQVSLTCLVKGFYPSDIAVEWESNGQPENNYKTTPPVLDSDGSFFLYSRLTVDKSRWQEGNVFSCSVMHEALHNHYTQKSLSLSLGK
light: DIQLTQSPSFLSAYVGDRVTITCKASQDVGTAVAWYQQKPGKAPKLLIYWASTLHTGVPSRFSGSGSGTEFTLTISSLQPEDFATYYCQHYSSYPWTFGQGTKLEIKRTVAAPSVFIFPPSDEQLKSGTASVVCLLNNFYPREAKVQWKVDNALQSGNSQESVTEQDSKDSTYSLSSTLTLSKADYEKHKVYACEVTHQGLSSPVTKSFNRGEC
modifications: percent of population: Asn 137 deamidation 1.0; percent of population: Met 248 oxidation 3.3; Asp 261/266/276 isomerization 1.0; Asn 311 deamidation 6.3; Asn 380 deamidation 9.5; Asn 385 deamidation 1.0; Asn 430 deamidation 1.3; Lys 443 clipped 97.8
notes: 5 mM AAPH, quenched at once with methionine; also called AAPH T0; AAPH Oxidation
For the molecule B4, the “Relative Potency, MSD Binding” value in assay [1] came to 79%. Moreover, in assay [10], the “Relative Potency (Potency by cell-based bioassay)” value was 102%. Besides, in assay [2], the “Relative Potency, Cell-Based Bioassay” value was determined as 102%. Besides, the Kd in assay [3] stood at 1660 nM.

B5: Dostarlimab, AAPH treated, 40° C., 7 days (antibody, human IgG4 S228P, kappa)
heavy: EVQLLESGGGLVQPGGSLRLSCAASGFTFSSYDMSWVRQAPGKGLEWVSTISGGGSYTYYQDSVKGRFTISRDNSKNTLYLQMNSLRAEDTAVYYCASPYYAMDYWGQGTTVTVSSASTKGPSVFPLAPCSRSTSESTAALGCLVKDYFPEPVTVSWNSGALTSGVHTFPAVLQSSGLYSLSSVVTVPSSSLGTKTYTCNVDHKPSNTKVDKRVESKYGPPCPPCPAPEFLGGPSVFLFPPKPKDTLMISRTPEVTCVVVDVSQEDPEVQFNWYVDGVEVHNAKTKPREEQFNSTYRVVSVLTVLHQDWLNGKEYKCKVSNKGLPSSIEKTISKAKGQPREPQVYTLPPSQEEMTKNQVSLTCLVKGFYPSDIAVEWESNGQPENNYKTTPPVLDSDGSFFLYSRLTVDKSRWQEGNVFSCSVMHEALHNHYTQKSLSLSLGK
light: DIQLTQSPSFLSAYVGDRVTITCKASQDVGTAVAWYQQKPGKAPKLLIYWASTLHTGVPSRFSGSGSGTEFTLTISSLQPEDFATYYCQHYSSYPWTFGQGTKLEIKRTVAAPSVFIFPPSDEQLKSGTASVVCLLNNFYPREAKVQWKVDNALQSGNSQESVTEQDSKDSTYSLSSTLTLSKADYEKHKVYACEVTHQGLSSPVTKSFNRGEC
modifications: PTM levels of this sample are not tabulated
notes: 5 mM AAPH; HMW 18.7%; also called AAPH, 40° C., 7 days
In the case of B5, the “Relative Potency, MSD Binding” value in assay [1] stood at 43%. In addition, the Kd in [3] worked out at 9690 nM.

B6: Dostarlimab, AAPH treated, 40° C., 5 days (antibody, human IgG4 S228P, kappa, V domains shown)
VH: EVQLLESGGGLVQPGGSLRLSCAASGFTFSSYDMSWVRQAPGKGLEWVSTISGGGSYTYYQDSVKGRFTISRDNSKNTLYLQMNSLRAEDTAVYYCASPYYAMDYWGQGTTVTVSS
VL: DIQLTQSPSFLSAYVGDRVTITCKASQDVGTAVAWYQQKPGKAPKLLIYWASTLHTGVPSRFSGSGSGTEFTLTISSLQPEDFATYYCQHYSSYPWTFGQGTKLEIKR
modifications: percent of population: Trp 50 oxidation 86.8; PTM levels of this sample are not tabulated
notes: 5 mM AAPH; HMW 16.4%; also called AAPH, 40° C., 5 days
For B6, in [1], the “Relative Potency, MSD Binding” value is 47%. Besides, the “Relative Potency, Cell-Based Bioassay” value in [2] was determined as 5%.

B7: Dostarlimab, H2O2 treated, 25° C., 1 week (antibody, human IgG4 S228P, kappa, V domains shown)
VH: EVQLLESGGGLVQPGGSLRLSCAASGFTFSSYDMSWVRQAPGKGLEWVSTISGGGSYTYYQDSVKGRFTISRDNSKNTLYLQMNSLRAEDTAVYYCASPYYAMDYWGQGTTVTVSS
VL: DIQLTQSPSFLSAYVGDRVTITCKASQDVGTAVAWYQQKPGKAPKLLIYWASTLHTGVPSRFSGSGSGTEFTLTISSLQPEDFATYYCQHYSSYPWTFGQGTKLEIKR
modifications: percent of population: Asn 137 deamidation 1.3; percent of population: Met 34 oxidation 14.0; Met 103 oxidation 64.9; Met 248 oxidation 98.6; Asn 311 deamidation 7.0; Met 354 oxidation 99.8; Asn 380 deamidation 10.9; Asn 385 deamidation 1.8; Met 424 oxidation 98.0; Lys 443 clipped 98.0
notes: 0.1% (v:v) H2O2; also called H2O2, 25° C., 1 week
On to B7, for which the “Relative Potency, MSD Binding” value in assay [11] was determined as 79%.

B8: Dostarlimab, sustained agitation, 300 rpm, 25° C., 3 weeks (antibody, human IgG4 S228P, kappa, V domains shown)
VH: EVQLLESGGGLVQPGGSLRLSCAASGFTFSSYDMSWVRQAPGKGLEWVSTISGGGSYTYYQDSVKGRFTISRDNSKNTLYLQMNSLRAEDTAVYYCASPYYAMDYWGQGTTVTVSS
VL: DIQLTQSPSFLSAYVGDRVTITCKASQDVGTAVAWYQQKPGKAPKLLIYWASTLHTGVPSRFSGSGSGTEFTLTISSLQPEDFATYYCQHYSSYPWTFGQGTKLEIKR
modifications: all PTM levels within analytical variability of the control
For B8, in [10], the “Relative Potency (Potency by cell-based bioassay)” value was 86%.
